Six molecules from patent US8367815B2, “Modular polynucleotides for ligand-controlled regulatory systems” (California Institute of Technology, priority 2007, dated 2013) can be followed below.

Series [1] has as its system EGFP. To be noted: for Basal expression levels (%): GFP(%): median green fluorescence of transfected vs untransfected cells in same well, without ligand, HEK293T tTA-d2EGFP; for η (dynamic range): ratio of GFP(%) at high (3 mM) and low (1 μM) theophylline concentrations. As for the experimental part: The functionality of shRNA switches was assessed in mammalian cell culture. Applicants transiently transfected plasmids harboring S1 and various switch controls transcribed from a U6 promoter into HEK293T cells stably expressing EGFP (Abbas-Terki et al, 2002).
In this example, Applicants systematically evaluated the tuning capabilities of shRNA switches with the aid of a mathematical model relating ligand concentration and target gene expression levels. Standard model parameters were incorporated to represent each chemical step from the proposed mechanism (Example 7). […] These assumptions yield the following relationship between relative expression levels of the target gene (f; output) and exogenous ligand concentration (L; input): f=1−e·fshRNA[1+KComp(1+KApt·L)]^−h, (1)
The power of this model lies in the ability to calculate realistic parameter values from a minimal set of experiments: fshRNA can be found in one experiment by measuring the relative knockdown of the target gene induced by an shRNA that contributes the shRNA stem, e can be calculated from basal expression levels from a few shRNA switches that strongly prefer the active conformation, and h can be calculated by generating a ligand response curve with one shRNA switch—as long as administration of the highest ligand concentration results in negligible knockdown of the target gene. The remaining model parameters, KComp and KApt, can be found from the same response curve used to calculate […], since varying KApt only changes the EC50 while varying KComp changes both EC50 and basal expression levels. A summary of the model parameters and how values are experimentally obtained are included in Table III below.
To investigate the validity of the model, Applicants experimentally determined model parameter values as described above: fshRNA was equated to the knockdown achieved with the original shRNA targeting EGFP (sh); e was calculated from the average basal expression levels produced by shRNA switches S5, S7, S9, and S10; and KComp, KApt, and h were determined by a model fit of the theophylline response curve for S1. […] The EC50 is related to KApt and KComp according to the following: EC50=(1+KComp^−1)KApt^−1, (4)
Cell culture and transfection. All cells were maintained at 37° C. in a 5% CO2-humidified incubator. HEK293T, HEK293, HeLa, and HEK293T tTA-d2EGFP cells were maintained in minimal essential medium (MEM) alpha media (Invitrogen) supplemented with 10% fetal bovine serum (FBS) (Invitrogen), whereas MDA-MB-231 cells were maintained in RMPI 1640 with glutamine (Invitrogen) supplemented with 10% FBS. Cells were transfected one day after seeding using Fugene 6 (Roche) according to the manufacturer's instructions, followed by the immediate addition of ligand. HEK293T tTA-d2EGFP were transfected with shRNA vector (250 ng), whereas cells lacking endogenous GFP were cotransfected with shRNA vector (250 ng) and the pcDNA3.1(+) (Invitrogen) harboring the d2EGFP gene (25 ng) (Clontech). One day post-transfection the media and ligand were replaced. Transfected cells were collected three days post-transfection for flow cytometry analysis.
Cell fluorescence analysis. Three days post-transfection, cells were trypsinized and subjected to flow cytometry analysis using the Cell Lab Quanta SC MPL (Beckman Coulter). Cells were first gated twice for (1) viability as assessed by electronic volume (EV) versus side scatter (SS) and (2) green fluorescence above autofluorescence to remove a nonfluorescent subpopulation.

Series [2] is described as follows: In-line probing of S4t under varying theophylline concentrations. The class given is binding. An excerpt:
Individual bands from the in-line gel (FIG. 1B) were quantified and normalized to an adjacent constant region to remove bias from inconsistent well loading. C56 bands were normalized to U47 bands, while C74 bands were normalized to U100-G102 bands.
Applicants designed an initial shRNA switch (S1) to target EGFP and respond to theophylline by incorporating an EGFP-targeting guide strand and the theophylline aptamer (Zimmermann et al, 2000) into our switch platform (FIG. 1A). Applicants used in-line probing (Soukup and Breaker, 1999, incorporated herein by reference, and briefly described below) to assess the structural characteristics of a T7-transcribed variant similar to S1 (S4t; FIG. 1B). In-line probing provides structural information from the ligand dependence of spontaneous RNA cleavage. See Materials and Methods section below.
In-line probing. In-line probing was conducted as described previously (Soukup et al, 1999). After heating at 70° C. for 2 min followed by slow cooling to room temperature, 5′ radiolabeled RNAs ([…]) were incubated for 40 hours at 25° C. in varying amounts of theophylline with 50 mM Tris-HCl pH 8.5, 20 mM MgCl2. Reactions were terminated by adding an equal volume of loading buffer (10 M urea, 1.5 mM EDTA). The alkaline hydrolysis ladder was generated by incubating RNA in 50 mM NaHCO3/Na2CO3 pH 9.2, 1 mM EDTA for 6 min at 95° C. The G-specific cleavage ladder was generated by incubating RNA in 1 U RNase T1 (Ambion) with 20 mM sodium citrate pH 5.0, 1 mM EDTA, 7 M urea, and 3 μg yeast RNA for 25 min at 25° C. RNAs were resolved on an 8% denaturing polyacrylamide gel, dried for 90 min at 70° C., then visualized on an FX phosphorimager (BioRAD). Band quantification was performed using the Quantity One software package (BioRAD). To account for well loading variability, quantified band intensities were normalized to an adjacent band of similar intensity showing negligible theophylline dependence.

Series [3] concerns La protein. Nature of the series: qRT-PCR of La protein mRNA from transfected HEK293T tTA-d2EGFP cells. The series is classed as cell-based. The protocol:
(A) qRT-PCR of La protein mRNA from HEK293T tTA-d2EGFP cells transfected in the presence (▪) or absence (□) of 1.5 mM theophylline. […] Error bars represent quadruplicate qRT-PCR measurements. (B) Curve fit to extrapolate empirical parameters C1-3. Dashed line marks knockdown achieved by base shRNA. (C) Model predictions for dynamic range using empirical parameter values for the GFP experiments along with fshRNA=0.6 and e=0.72 (gray curve) and extrapolated values from the La experiments (black curve). (D) Relationship between dynamic range (η) and the free energy difference. The dashed line represents the apparent increase in La mRNA levels upon theophylline addition observed for the base shRNA (shL).
To examine the generality of shRNA switch design and functionality, Applicants designed a set of shRNA switches targeting the endogenous La protein. Following selection of an shRNA sequence that yields moderate knockdown of La as ascertained by qRT-PCR, various switching strand sequences covering a range of ΔG values were combined with the smaller theophylline aptamer to yield six shRNA switches (L1-6). […] As observed for the GFP-targeting shRNA switches, use of the stems method provided a suitable correlation between basal levels and ΔGmethod. Supplying the model with fit values for C1-3 yielded a predicted dynamic range trend that closely matched the experimental data. […]

“And” between values parts separate entries of the source, which are not always exact repeats. Equal entries are not always repeated. Where two headings read alike, the source gives them in different places.

For “S23: EGFP shRNA switch, smaller theophylline aptamer; Table I (pCS1061) (CTCGAGATACCAGCCGAAAGGCCCTTGGCAGCTCGAGCTGATCCTGCTAGA)”, in series [1], the “Basal expression levels (%)” value came to 16.6% and the “η (dynamic range)” value turned out to be 3.30.
“S24: EGFP shRNA switch, smaller theophylline aptamer; Table I (PCS1062) (CTCGAGATACCAGCCGAAAGGCCCTTGGCAGCTCGGGCTGATCCTGCTAGA)”: in series [1], the “Basal expression levels (%)” value was found to be 10.8% and the “η (dynamic range)” value came to 3.00.
For “S25: EGFP shRNA switch, smaller theophylline aptamer; Table I (pCS1063) (CTCGAGATACCAGCCGAAAGGCCCTTGGCAGCTCGGGCTGATCCTGACTAGA)”, in that order: 11.8% and 2.63.

B1: S4t: T7-transcribed variant similar to S1, used for in-line probing; SEQ ID NO: 51 (nucleic acid)
chain: GGGUCAGAUGAACUUCAGGGUCAGCUCGAGAUACCAGCAUCGACUCUUCGAUGCCCUUGGCAGCUCGGGCUGACCCUGCUAGAGCUGACCCUGAAUCAUCUGACCCUU
modifications: RNA, phosphodiester; further chemistry not fully specified
As for B1, the “KComp solved from in-line assay results” value in series [2] (equation (4) with ratio of apparent KD to KD of aptamer alone) is 0.06. Also, in series [2] (theophylline), the “ratio of the apparent KD to the KD of the aptamer alone” value is given as roughly 17. Also, the Kd was 3.6 µM in series [2] (theophylline, Michaelis-Menten fit, C56 bands normalized to U47, read-out: KD from in-line cleavage at C56); 6.8 µM in series [2] (theophylline, Michaelis-Menten fit, C74 bands normalized to U100-G102, read-out: KD from in-line cleavage at C74); ~5 µM and 5 µM in series [2] (theophylline, from quantifying cleavage products at two positions, read-out: apparent dissociation constant (KD)).

B2: S1: initial shRNA switch targeting EGFP, theophylline aptamer; Table I (pCS630), SEQ ID NO: 48 (nucleic acid)
chain: GGUGCAGAUGAACUUCAGGGUCAGCUCGAGAUACCAGCAUCGACUCUUCGAUGCCCUUGGCAGCUCGGGCUGACCCUGACUAGAGCUGACCCUGAAUCAUCUGCACCUU
In the case of B2, in series [1], the “Basal expression levels (%)” value was found to be 33.8% and the “η (dynamic range)” value is 2.71. Also, the “knockdown of EGFP” value in series [1] (compared to original shRNA (sh) and scrambled shRNA (neg), flow cytometry) is listed as “intermediate knockdown”. In series [1] (from average basal expression levels of switches that highly favor the active conformation), the “e (RNAi processing efficiency)” value came to 0.85. For the same molecule, the “theophylline dependence of GFP levels” value in series [1] (in the presence of theophylline) is “increased in a dose-dependent manner”. For the same molecule, in series [1] (least-squares model fit of theophylline response curve), the “KComp (partitioning coefficient between active and inactive conformations)” value amounted to 0.17. Moreover, in series [1] (model fit of theophylline response curve), the “h (Hill coefficient)” value amounted to 1.33. Also, in series [1] (model fit of theophylline response curve in cells), the “KApt (association constant between ligand and formed aptamer)” value was found to be 0.016 µM⁻¹. In addition, the EC50 in series [1] (read-out: effective concentration to achieve 50% activity (EC50), theophylline concentration, GFP levels, HEK293T cells stably expressing EGFP) was roughly 300 µM. The “fshRNA (relative knockdown by original shRNA)” value in series [1] (set by separate transfection with original shRNA targeting EGFP (sh), parameter of the S1 transfer function) amounted to 0.94.

B3: shL: base shRNA targeting endogenous La protein; sequence in Table I (pCS1457) (nucleic acid)
chain: GGATCCGGCTTCCCAACGATGATGCAACTCCTCGAGTCTAGAGGAGTTGCATCAGTTGGGAAGCCTTTTTTGGAAGCTT
modifications: the letters are possibly those of the target site
Consider B3, for which, in series [3] (1.5 mM theophylline), the “response of La mRNA levels to theophylline” value is “not observed”. Besides, in series [3] (relative knockdown of La by base shRNA), the “fshRNA (La experiments)” value is listed as 0.6.
